The data set concerns the molecule itself. In words: SDS-PAGE of semi-denatured protein.

B1: PanD 114Stop (aspartate decarboxylase domain without the C-terminal tail) (domain or fragment)
chain: MLRTMLKSKIHRATVTCADLHYVGSVTIDADLMDAADLLEGEQVTIVDIDNGARLVTYAITGERGSGVIGINGAAAHLVHPGDLVILIAYATMDDARARTYQPRIVFVDAYNKP
Take B1: the binding result is reported as “binds”.

(Values after PMC5734868 (ACS infectious diseases, 2017).)
